Legend:
1433b_human YWHAB = 1433b_human YWHAB (UniProt P31946)
1433e_human YWHAE = 1433e_human YWHAE (UniProt P62258)
1433g_human YWHAG = 1433g_human YWHAG (UniProt P61981)
1433f_human YWHAH = 1433f_human YWHAH (UniProt Q04917)
1433t_human YWHAQ = 1433t_human YWHAQ (UniProt P27348)
1433z_human YWHAZ = 1433z_human YWHAZ (UniProt P63104)
UniProt P63104, sequence (P63104 whole entry): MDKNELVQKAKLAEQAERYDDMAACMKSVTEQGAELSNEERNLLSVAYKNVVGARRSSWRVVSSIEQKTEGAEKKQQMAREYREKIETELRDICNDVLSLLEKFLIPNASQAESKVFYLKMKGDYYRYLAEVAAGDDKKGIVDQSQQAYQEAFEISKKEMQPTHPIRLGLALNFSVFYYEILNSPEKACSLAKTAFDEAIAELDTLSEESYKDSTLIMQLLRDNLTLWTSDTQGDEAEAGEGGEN

UniProt P61981, sequence (P61981 whole entry): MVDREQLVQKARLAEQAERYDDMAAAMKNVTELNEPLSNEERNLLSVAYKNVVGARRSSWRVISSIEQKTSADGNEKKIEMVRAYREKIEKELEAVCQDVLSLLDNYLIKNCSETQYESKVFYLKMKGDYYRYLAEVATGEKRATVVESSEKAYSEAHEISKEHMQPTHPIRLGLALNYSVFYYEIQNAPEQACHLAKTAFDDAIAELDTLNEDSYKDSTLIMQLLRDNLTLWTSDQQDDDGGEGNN
UniProt P27348, sequence (P27348 whole entry): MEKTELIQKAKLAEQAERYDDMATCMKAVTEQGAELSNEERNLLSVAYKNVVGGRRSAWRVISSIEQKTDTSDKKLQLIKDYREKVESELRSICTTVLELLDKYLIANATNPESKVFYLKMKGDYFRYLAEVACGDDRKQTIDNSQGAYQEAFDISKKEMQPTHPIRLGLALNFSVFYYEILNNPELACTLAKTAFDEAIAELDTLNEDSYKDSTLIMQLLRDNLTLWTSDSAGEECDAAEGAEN
UniProt Q04917, sequence (Q04917 whole entry): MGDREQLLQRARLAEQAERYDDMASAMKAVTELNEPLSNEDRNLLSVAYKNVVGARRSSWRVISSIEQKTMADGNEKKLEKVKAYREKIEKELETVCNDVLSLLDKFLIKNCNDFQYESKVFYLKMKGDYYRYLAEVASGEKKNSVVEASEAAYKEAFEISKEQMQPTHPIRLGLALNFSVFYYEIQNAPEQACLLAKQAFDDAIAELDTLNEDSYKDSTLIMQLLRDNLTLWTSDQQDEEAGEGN
UniProt P31946, sequence (P31946 whole entry): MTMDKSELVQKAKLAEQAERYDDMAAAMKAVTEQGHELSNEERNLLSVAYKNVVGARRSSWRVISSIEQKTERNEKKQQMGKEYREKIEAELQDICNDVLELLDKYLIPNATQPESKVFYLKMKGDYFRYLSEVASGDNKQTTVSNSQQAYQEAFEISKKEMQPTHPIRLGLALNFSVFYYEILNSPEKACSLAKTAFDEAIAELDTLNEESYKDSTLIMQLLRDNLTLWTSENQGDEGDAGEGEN
UniProt P62258, sequence (P62258 whole entry): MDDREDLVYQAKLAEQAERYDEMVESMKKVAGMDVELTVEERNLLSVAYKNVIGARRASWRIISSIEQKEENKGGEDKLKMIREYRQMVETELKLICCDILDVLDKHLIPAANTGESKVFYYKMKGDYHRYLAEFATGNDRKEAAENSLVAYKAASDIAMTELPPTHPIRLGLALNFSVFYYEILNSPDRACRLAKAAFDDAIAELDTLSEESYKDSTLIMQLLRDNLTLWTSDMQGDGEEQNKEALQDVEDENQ

## Spatacsin (Homo sapiens), Q96JI7 S1955A
1433b_human YWHAB
  effect of a mutation on the interaction: decreasing interaction strength
1433e_human YWHAE
  effect of a mutation on the interaction: with no effect
1433g_human YWHAG
  effect of a mutation on the interaction: decreasing interaction strength
1433f_human YWHAH
  effect of a mutation on the interaction: decreasing interaction strength
1433t_human YWHAQ
  effect of a mutation on the interaction: decreasing interaction strength
1433z_human YWHAZ
  effect of a mutation on the interaction: decreasing interaction strength

— IntAct's records for PubMed 36096339
